Measurements as given in patent publication US20230399393A1, “METHODS TO EXTEND HEALTH-SPAN AND TREAT AGE-RELATED DISEASES” (National University of Singapore, priority 2020, published 2023).

Legend:
[1] = target: T1, Mouse IL-11 protein in tissue lysates of C57Bl/6J mice (mouse, UniProt P47873 22-199, limits assumed); assay: western blot of mouse liver lysates (SDS-PAGE, PVDF), X203 as primary antibody, anti-mouse HRP and ECL detection
T1 sequence (looked up): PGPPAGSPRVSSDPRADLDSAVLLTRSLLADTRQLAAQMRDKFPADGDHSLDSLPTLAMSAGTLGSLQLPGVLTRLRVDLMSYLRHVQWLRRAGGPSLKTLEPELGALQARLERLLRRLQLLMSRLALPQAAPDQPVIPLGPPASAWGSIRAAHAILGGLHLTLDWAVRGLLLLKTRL
Protocol: Briefly, livers were harvested from mice and homogenized in radioimmunoprecipitation assay (RIPA) lysis and Extraction Buffer (ThermoFisher Scientific) containing protease and phosphatase inhibitors (Roche), followed by centrifugation to clear the lysate. Protein concentrations were determined by Bradford assay (Bio-Rad). Equal amounts of protein lysates were separated by SDS-PAGE, transferred to PVDF membranes, blocked for 1 h with 3% BSA, and incubated overnight with X203 (1:2000) or anti-GAPDH (1:1000, CST). Protein bands were visualized using the ECL detection system (Pierce) with the appropriate secondary antibodies: anti-mouse HRP and anti-rabbit HRP (1:5000, CST). […]

IL-11 signalling = conditions: binds IL-11Rα, engagement of gp130 homodimer fails; cited from earlier work
human hepatocytes [2] = assay: Increasing concentrations of IL-11 or IL-6, western blot p-LKB1/p-AMPK; assay type: cell-based; conditions: 24 hours; p-LKB1, p-AMPK
Protocol: (§1) FIG. 23. Western blot image showing the levels of p-LKB1, LKB1, p-AMPK, AMPK in primary human hepatocytes or primary human hepatic stellate cells that are unstimulated (BL) or stimulated for 24 hours with increasing concentrations (1.25, 2.5, 5, 10 or 20 ng/ml) of IL-11 or IL-6.
(§2) Primary human hepatic stellate cells (HSCs) and human hepatocytes were stimulated for 24 hours with increasing concentrations (1.25-20 ng/ml) of IL-11 or IL-6. […] The effect of IL-11 on these markers is observable at concentrations as low as 1.25 ng/ml in both HSCs and hepatocytes.

[3] = test system: Primary human hepatic stellate cells (HSCs); assay: as above; assay type: cell-based; conditions: 24 hours; p-LKB1, p-AMPK
Protocol: as §1, §2

[4] = test system: Primary human hepatic stellate cells; assay: IL-11 stimulation in the presence of DMSO or U0126, western blot; assay type: cell-based; conditions: IL-11 treatment 24 hours
Protocol: FIG. 21. Western blot image showing the levels of p-ERK, ERK, p-P90RSK, P90RSK, p-LKB1, LKB1, p-AMPK, AMPK, p-mTOR, mTOR, p-p70S6K, p70S6K, p-S6RP, S6RP, SMA, and GAPDH in primary human hepatic stellate cells that are unstimulated (BL+DMSO) or stimulated for 24 hours with IL11 in the presence DMSO or U0126 (10 μM).
(§3) Primary human hepatic stellate cells and human hepatocytes were stimulated for 24 hours with IL-11 in the presence DMSO or U0126. As discussed in Example 4.4, the inventors observed that IL-11 treatment stimulates p-mTOR, p-70S6K and p-S6RP. In line with the inventors' hypothesis, administration of U0126 to IL-11-stimulated cells prevents ERK-mediated inactivation of LKB1/AMPK that stops IL11-induced mTORC1/P70S6K activation (FIG. 21 and FIG. 22, respectively).

human hepatocytes [5] = assay: IL-11 stimulation of cells overexpressing wild-type LKB1, western blot; assay type: cell-based; conditions: IL11 10 ng/ml, 2 hours
Protocol: (§4) FIG. 17. Human hepatic stellate cells (17A) and hepatocytes (17B) were infected with AAV8 encoding human LKB1 (multiplicity of infection=20) for 24 hours and then stimulated with IL11 (10 ng/ml) for 2 hours. Cell lysates were immunoblotted for the proteins shown.
(§5) Human hepatic stellate cells (FIG. 17A) and human hepatocytes (FIG. 17B) were engineered to overexpress the wild-type LKB1 and a double mutant S325A, S428A (DM-LKB1). FIGS. 17A and 17B confirm that stimulation with IL-11 induces phosphorylation at […] in the WT LKB1 cells. As expected, phosphorylation is not observed in the double mutant LKB1 cells.

[6] = test system: Human hepatic stellate cells; assay: as above; assay type: cell-based; conditions: IL11 10 ng/ml, 2 hours
Protocol: as §4, §5

A549 cells = assay: IL-11 stimulation of A549 cells overexpressing human LKB1, western blot; assay type: cell-based; conditions: IL11 10 ng/ml; AAV8 human LKB1
Protocol: FIG. 16. IL-11 stimulates ERK-mediated phosphorylation of LKB1 serine 325(S325) and P90RSK-mediated phosphorylation of LKB1 serine 428 (S428) with subsequent inactivation of AMPK and activation of mTOR, P70RSK and S6RP. (16A) A549 cells were infected with AAV8 encoding human LKB1 (multiplicity of infection=20) for 24 hours and then stimulated with IL11 (10 ng/ml) for the indicated times (15 minutes, 2 hours, 4 hours, 6 hours, or 24 hours). Cell lysates were immunoblotted for the proteins shown. (16B) Schematic of activation of ERK (directly) and P90RSK (indirectly) by IL-11-mediated signalling and downstream effects on hallmarks of ageing. P or p; phosphorylated amino acid.
To determine the mechanism through which IL-11 stimulates phosphorylation of LKB1, A549 cells were engineered to overexpress human LKB1 (AA8-LKB1 in FIG. 16A) and treated with IL-11.

human hepatocytes [7] = assay: IL-11 stimulation in the presence of DMSO or U0126, western blot; assay type: cell-based; conditions: IL-11 treatment 24 hours
Protocol: FIG. 22. Western blot image showing the levels of p-ERK, ERK, p-P90RSK, P90RSK, p-LKB1, LKB1, p-AMPK, AMPK, p-mTOR, mTOR, p-p70S6K, p70S6K, p-S6RP, S6RP in primary human hepatocytes that are unstimulated (BL+DMSO) or stimulated for 24 hours with IL11 in the presence DMSO or U0126 (10 μM).
as §3

IL-11Rα = target: T2, IL-11Rα (Homo sapiens, UniProt Q14626); conditions: low affinity binding to IL-11Rα alone; cited from earlier work
T2 sequence (Q14626 23-422): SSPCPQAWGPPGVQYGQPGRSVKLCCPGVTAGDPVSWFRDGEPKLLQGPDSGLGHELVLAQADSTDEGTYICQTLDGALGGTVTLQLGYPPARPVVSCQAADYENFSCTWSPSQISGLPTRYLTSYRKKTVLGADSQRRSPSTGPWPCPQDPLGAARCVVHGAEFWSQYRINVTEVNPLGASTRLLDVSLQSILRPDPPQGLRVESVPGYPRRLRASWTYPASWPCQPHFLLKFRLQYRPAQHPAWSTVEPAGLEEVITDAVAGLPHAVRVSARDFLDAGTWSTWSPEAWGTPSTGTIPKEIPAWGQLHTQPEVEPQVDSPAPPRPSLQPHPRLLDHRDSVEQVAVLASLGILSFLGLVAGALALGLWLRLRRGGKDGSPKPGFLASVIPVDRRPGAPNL

[8] = test system: Primary human cardiac fibroblasts; assay: IL-11 stimulation time course, western blot; assay type: cell-based; conditions: IL-11 10 ng/ml, 15 mins, 2, 4, 6 or 24 hours
Protocol: FIG. 15. Western blot image showing the levels of p-LKB1, LKB1, p-mTOR, mTOR in primary human cardiac fibroblasts that are stimulated with IL11 (10 ng/ml), for 15 minutes, 2 hours, 4 hours, 6 hours, or 24 hours.
Primary human cardiac fibroblasts were stimulated with IL-11 (10 ng/ml), for 15 mins, 2, 4, 6, or 24 hours and the levels of phosphorylated LKB1 (p-LKB1), LKB1, phosphorylated mTOR (p-mTOR) and mTOR were measured by western blot.

B1: X203, mouse anti-mouse IL-11 IgG (anti-IL-11 antagonist antibody) (antibody, V domains shown)
VH: EVQLQQSGPELVKPGASVKIPCKASGYTFTDYNMDWVKQSHGKSLEWIGDINPHNGGPIYNQKFTGKATLTVDKSSSTAYMELRSLTSEDTAVYYCARGELGHWYFDVWGTGTTVTVSS
VL: DIVLTQSPASLAVSLGQRATISCRASKSVSTSGYSYIHWYQQKPGQPPKLLIYLASNLDSGVPARFSGSGSGTDFTLNIHPVEEEDAATYYCQHSRDLPPTFGGGTKLEIK
notes: also called Enx203; anti-IL11 (X203)
binding result [1]: binds

B2: W147A: IL-11 antagonist in which amino acid 147 is mutated from a tryptophan to an alanine (protein, UniProt P20809 22-199, looked up, variant W147A)
Interleukin-11: PGPPPGPPRVSPDPRAELDSTVLLTRSLLADTRQLAAQLRDKFPADGDHNLDSLPTLAMSAGALGALQLPGVLTRLRADLLSYLRHVQWLRRAGGSSLKTLEPELGTLQARLDRLLRRLQLLMSRLALPQPPPDPPAPPLAPPSSAAGGIRAAHAILGGLHLTLDWAVRGLLLLKTRL
blockade of IL-11 signalling (IL-11 signalling): efficient blockade

B3: IL-11: Interleukin 11, pleiotropic cytokine of the IL-6 family, used to stimulate cells (protein)
chain: T1 sequence (looked up)
lowest concentration at which the effect on these markers is observable (human hepatocytes [2]): 1.25 ng/mL
lowest concentration at which the effect on these markers is observable [3]: 1.25 ng/mL
p-mTOR, p-70S6K and p-S6RP [4]: stimulates
phosphorylation at S428 and S325 in the WT LKB1 cells (human hepatocytes [5]): induces
phosphorylation at S428 and S325 in the WT LKB1 cells [6]: induces
ERK-mediated phosphorylation of LKB1 Serine 325 (S325) and P90RSK-mediated phosphorylation of LKB1 serine 428 (S428) (A549 cells): stimulates
p-mTOR, p-70S6K and p-S6RP (human hepatocytes [7]): stimulates
Kd (IL-11Rα): ~22 nM
level of phosphorylated LKB1 and phosphorylated mTOR [8]: increases
